Laboratory results published in article PMC11718114 (2025).

Experiments:
PI3Kγ(144-1102)-His6 = PI3Kγ(144-1102)-His6 (human, UniProt P48736 144-1102); assay: ITC
[1] = biological target: PI3Kα: p110α(2-1068) W1057A/I1058A/F1059A + p85(322-600) (human, UniProt P42336 2-1068; P27986 322-600, W1057A | I1058A | F1059A); assay: ITC

Sequence of PI3Kγ(144-1102)-His6 (P48736 144-1102): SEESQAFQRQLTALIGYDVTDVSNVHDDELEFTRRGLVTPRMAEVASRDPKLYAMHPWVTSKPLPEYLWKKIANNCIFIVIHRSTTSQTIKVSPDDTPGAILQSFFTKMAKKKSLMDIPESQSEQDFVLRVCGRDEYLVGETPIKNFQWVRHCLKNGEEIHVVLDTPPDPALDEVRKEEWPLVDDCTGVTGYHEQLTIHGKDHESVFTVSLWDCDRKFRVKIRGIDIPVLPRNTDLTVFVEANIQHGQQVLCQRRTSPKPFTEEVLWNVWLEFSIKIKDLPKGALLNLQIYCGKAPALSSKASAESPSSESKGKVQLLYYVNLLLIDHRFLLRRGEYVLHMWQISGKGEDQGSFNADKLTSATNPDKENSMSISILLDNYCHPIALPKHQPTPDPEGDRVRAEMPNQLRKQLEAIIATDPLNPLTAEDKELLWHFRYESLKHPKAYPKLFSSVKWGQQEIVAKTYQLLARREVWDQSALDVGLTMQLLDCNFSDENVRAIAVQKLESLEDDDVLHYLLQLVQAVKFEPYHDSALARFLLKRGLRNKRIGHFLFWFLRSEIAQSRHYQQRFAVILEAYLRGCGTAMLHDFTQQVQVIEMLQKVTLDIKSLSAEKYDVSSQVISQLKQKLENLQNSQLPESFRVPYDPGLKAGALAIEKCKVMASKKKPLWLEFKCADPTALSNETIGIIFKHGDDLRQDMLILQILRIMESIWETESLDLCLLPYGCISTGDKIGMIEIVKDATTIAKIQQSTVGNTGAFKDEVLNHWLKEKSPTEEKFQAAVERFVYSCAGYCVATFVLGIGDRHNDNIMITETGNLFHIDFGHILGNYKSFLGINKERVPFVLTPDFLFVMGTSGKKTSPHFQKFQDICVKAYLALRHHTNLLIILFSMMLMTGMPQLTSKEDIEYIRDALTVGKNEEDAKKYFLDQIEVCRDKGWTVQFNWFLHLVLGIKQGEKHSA

| Kd (PI3Kγ(144-1102)-His6) | Kd [1] | Binder |
| --- | --- | --- |
| 5.5 µM | – | RRAS2 (wild type) (domain or fragment) MAAAGWRDGSGQEKYRLVVVGGGGVGKSALTIQFIQSYFVTDYDPTIEDSYTKQCVIDDRAARLDILDTAGQEEFGAMREQYMRTGEGFLLVFSVTDRGSFEEIYKFQRQILRVKDRDEFPMILIGNKADLDHQRQVTQEEGQQLARQLKVTYMEASAKIRMNVDQAFHELVRVIRKFQ |
| – | 27.6 µM | RRAS(22-192) (domain or fragment) GDPPPSETHKLVVVGGGGVGKSALTIQFIQSYFVSDYDPTIEDSYTKICSVDGIPARLDILDTAGQEEFGAMREQYMRAGHGFLLVFAINDRQSFNEVGKLFTQILRVKDRDDFPVVLVGNKADLESQRQVPRSEASAFGASHHVAYFEASAKLRLNVDEAFEQLVRAVRK |
